Publication PMC3897721, “Structure of Utp21 Tandem WD Domain Provides Insight into the Organization of the UTPB Complex Involved in Ribosome Synthesis” (PLoS ONE, 2014)

T1: Utp21 1–684 (tandem WD domain, GST-tag cleaved) (yeast (S. cerevisiae), UniProt Q06078 1-684)
T1 construct: The methods say only 'purified as described above' for the protein of the pull-down; also called tandem WD domain of Utp21; source: E. coli BL21(DE3), purified (Glutathione Sepharose, on-bead PreScission cleavage, Superdex 200); not shown: GST, N-terminal, cleaved
T1 sequence (looked up): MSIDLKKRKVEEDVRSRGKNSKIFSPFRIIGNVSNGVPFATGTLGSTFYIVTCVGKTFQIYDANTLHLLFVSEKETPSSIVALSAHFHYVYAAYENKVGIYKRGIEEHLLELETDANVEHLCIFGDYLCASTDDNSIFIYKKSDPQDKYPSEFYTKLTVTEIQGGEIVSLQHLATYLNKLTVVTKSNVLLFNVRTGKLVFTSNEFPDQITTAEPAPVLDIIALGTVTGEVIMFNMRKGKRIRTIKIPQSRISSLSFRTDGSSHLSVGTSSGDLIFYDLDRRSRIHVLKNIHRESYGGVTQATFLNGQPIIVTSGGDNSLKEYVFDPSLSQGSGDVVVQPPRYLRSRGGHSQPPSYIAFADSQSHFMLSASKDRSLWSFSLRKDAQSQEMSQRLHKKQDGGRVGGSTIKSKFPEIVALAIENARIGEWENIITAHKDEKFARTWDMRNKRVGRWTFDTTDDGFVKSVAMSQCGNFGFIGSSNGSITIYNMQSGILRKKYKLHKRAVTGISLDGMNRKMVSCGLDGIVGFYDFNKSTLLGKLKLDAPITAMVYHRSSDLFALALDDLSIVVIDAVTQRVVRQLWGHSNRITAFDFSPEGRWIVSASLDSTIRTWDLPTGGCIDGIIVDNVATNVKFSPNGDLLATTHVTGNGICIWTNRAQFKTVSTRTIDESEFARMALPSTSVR

B1: His6-Smt3-Utp18 139–190 (domain or fragment, yeast (S. cerevisiae), UniProt P40362 139-190, looked up)
chain: VTNKTKKLRTSYNESKINGVHYINRLRSQFEKIYPRPKWVDDESDSELDDEE
notes: Utp18, yeast (S. cerevisiae), residues 139–190; source: expressed from pET28a, purified (HisTrap and Q chromatography); not shown: His6, N-terminal, kept; Smt3, N-terminal, kept
B2: His6-Smt3-Utp18 100–190 (domain or fragment, yeast (S. cerevisiae), UniProt P40362 100-190, looked up)
chain: EDTMDVDDEDDSSSDDYSEDSEEAAWIDSDDEKIKVPILVTNKTKKLRTSYNESKINGVHYINRLRSQFEKIYPRPKWVDDESDSELDDEE
notes: Utp18, yeast (S. cerevisiae), residues 100–190; source: expressed from pET28a, purified (HisTrap and Q chromatography); not shown: His6, N-terminal, kept; Smt3, N-terminal, kept
B3: His6-Smt3-Utp18 100–139 (domain or fragment, yeast (S. cerevisiae), UniProt P40362 100-139, looked up)
chain: EDTMDVDDEDDSSSDDYSEDSEEAAWIDSDDEKIKVPILV
notes: Utp18, yeast (S. cerevisiae), residues 100–139; source: expressed from pET28a, purified (HisTrap and Q chromatography); not shown: His6, N-terminal, kept; Smt3, N-terminal, kept

molecular target: T1, Utp21 1–684 (tandem WD domain, GST-tag …); assay: pull-down; His6-Smt3-tagged Utp18 fragments (0.95 nmol) incubated with Utp21 1–684 (1.9 nmol) 2 h at 4°C, bound to Ni Sepharose beads; washed with 25 mM Tris-HCl pH 7.6, 500 mM NaCl, 10 mM imidazole; SDS-PAGE, Coomassie; settings: both partners purified

Binding result, binds:
B1
B2
B3
